Results reported in patent publication US20040091992A1.

Biological target: Myc tagged Cdc42HsV12 (constitutively active, expressed in microinjected cells) (UniProt P60953)
Experiment: cell-based or functional assay

Myc tagged Cdc42HsV12 (constitutively active, expressed in microinjected cells), sequence (P60953 other isoform, or with tags, fused parts or gaps): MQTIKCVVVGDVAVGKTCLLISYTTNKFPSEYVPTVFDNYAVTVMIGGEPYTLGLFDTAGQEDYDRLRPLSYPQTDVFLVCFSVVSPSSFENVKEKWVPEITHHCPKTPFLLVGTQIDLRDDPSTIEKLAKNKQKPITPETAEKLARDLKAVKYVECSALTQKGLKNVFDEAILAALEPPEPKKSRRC

HA tagged PAK4 (wild type, expressed in cells from the SRalpha vector) (from UniProt O96013 1-591)
sustained formation of actin enriched filopodia protrusions in co-injected PAE cells (% of the injected cells): > 70
